Here are results for five molecules from patent US20220267438A1 (Janssen / Centocor, published 2022).

Experiment [1] deals with T1, human BCMA (B cell maturation antigen, TNFRSF17) on cells (human, UniProt Q02223 1-184).
T1 sequence (looked up): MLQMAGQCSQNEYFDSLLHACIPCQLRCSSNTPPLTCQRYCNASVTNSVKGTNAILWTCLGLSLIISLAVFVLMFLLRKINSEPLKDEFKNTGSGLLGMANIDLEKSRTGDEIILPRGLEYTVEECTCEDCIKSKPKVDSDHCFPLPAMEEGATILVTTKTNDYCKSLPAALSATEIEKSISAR
The experiment in a line: cell-based or functional assay.

Experiment [2] addresses T2, human GPRC5D (G-protein coupled receptor family C group 5 member D) on cells (human, UniProt Q9NZD1 1-345). The experiment in a line: cell-based or functional assay.
The target of experiment [3] is T3, cynomolgus monkey CD3 on peripheral blood mononuclear cells (cynomolgus monkey, UniProt Q95LI5 22-198).
T3 construct: whole, on cells; also called cyno CD3
The experiment in a line: flow cytometry, cynomolgus monkey PBMCs. The protocol: The CD3-binding arm (i.e., CD3B376) binds to cynomolgus monkey CD3. Briefly, binding was measured by flow cytometry after incubating human and cynomolgus monkey peripheral blood mononuclear cells (PBMCs) with GCDB381 (i.e., CD3B376 Fab in bivalent IgG1-AAS antibody), CD3B891 (i.e., CD3B376×Null, IgG1-AAS bispecific antibody), or null control.
(In general: Flow cytometry measures light scatter and fluorescence of single cells or particles in a stream.)

The target of experiment [4] is T4, human CD3 (CD3ε of the TCR/CD3 complex) on primary human pan T cells (human, UniProt P07766 23-207).
T4 construct: whole, on cells; On T cells CD3ε stands in the whole TCR/CD3 complex
The experiment can be described thus: flow cytometry on T cells of donor D203727, with curve extrapolation. The protocol: (§1) Flow cytometry was used to evaluate the CD3 arm (i.e., CD3B376) binding of BGCB491 to CD3⁺ pan T cells from 7 different healthy human. Cell-based EC₅₀ for CD3B376 could not be determined due to lack of saturation kinetics at 1 hour (FIG. 26). Bioinformatic extrapolation was performed (FIG. 27) using the CD3B376×Null control antibody (i.e., GCDB381) molecule, which saturates within 2 μM top concentration dose-response to constrain the top of the non-linear regression curve to generate a full curve that enables estimation of ECₓ values (Table 21).

The target in experiment [5] is T4, human CD3 (CD3ε of the TCR/CD3 complex) …. The experiment in a line: flow cytometry on T cells of donor D316144, with curve extrapolation. As for the experimental part:
as §1

Experiment [6] has the same target. The experiment in a line: flow cytometry on T cells of donor D327645, with curve extrapolation. The protocol: as §1
The target of experiment [7] is T2, human GPRC5D (G-protein coupled …). The experiment in a line: cell binding, H929 and MM.1R cells.
For experiment [8] the target is unchanged. The experiment in a line: cell binding, H929 and MM.1R cells; lower end of the range over H929 and MM.1R cells.
Experiment [9] deals with T5, BCMW37 (recombinant human BCMA antigen) (human, UniProt Q02223 1-54, limits assumed).
T5 construct: also called BCMA BCMW37 chain; human BCMA (SPR antigen)
T5 sequence (looked up): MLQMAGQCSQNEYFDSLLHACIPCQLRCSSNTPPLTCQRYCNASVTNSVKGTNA
The experiment can be described thus: SPR. Background: SPR reads the build-up and loss of mass on a sensor chip optically.

In experiment [10] the target is T1, human BCMA (B cell maturation antigen, …). The experiment can be described thus: cell binding, H929 and MM.1R cells.
For experiment [11] the target is unchanged. The experiment can be described thus: cell binding, H929 and MM.1R cells. This is another data set of the same source.
The target of experiment [12] is T5, BCMW37 (recombinant human BCMA antigen). The experiment can be described thus: SPR; antigen BCMW37; parental BCMA binder as scFv.

Where two headings read alike, the source gives them in different places.

T4 sequence (P07766 23-207, one chain of several): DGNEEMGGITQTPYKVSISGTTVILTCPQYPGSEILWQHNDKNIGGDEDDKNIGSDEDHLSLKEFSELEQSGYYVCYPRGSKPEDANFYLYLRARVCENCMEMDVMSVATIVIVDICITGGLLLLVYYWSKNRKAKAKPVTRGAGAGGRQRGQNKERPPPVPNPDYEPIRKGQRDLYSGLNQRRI
T2 sequence (Q9NZD1 whole entry): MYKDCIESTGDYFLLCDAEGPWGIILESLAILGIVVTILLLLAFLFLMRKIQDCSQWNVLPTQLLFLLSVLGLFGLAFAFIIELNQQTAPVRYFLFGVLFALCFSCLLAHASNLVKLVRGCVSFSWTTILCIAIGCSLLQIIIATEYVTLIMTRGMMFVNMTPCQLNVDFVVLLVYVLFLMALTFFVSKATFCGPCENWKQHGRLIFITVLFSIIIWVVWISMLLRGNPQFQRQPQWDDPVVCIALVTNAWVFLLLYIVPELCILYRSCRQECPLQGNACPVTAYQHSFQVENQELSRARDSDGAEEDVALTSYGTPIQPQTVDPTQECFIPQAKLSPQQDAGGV
T3 sequence (Q95LI5 22-198): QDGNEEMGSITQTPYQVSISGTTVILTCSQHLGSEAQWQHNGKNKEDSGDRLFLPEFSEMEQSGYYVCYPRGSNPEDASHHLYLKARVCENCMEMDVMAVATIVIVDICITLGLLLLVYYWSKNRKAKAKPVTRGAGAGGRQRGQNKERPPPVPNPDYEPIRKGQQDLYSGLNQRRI

B1: Teclistamab (BCMA×CD3 bispecific antibody) (bispecific antibody)
chain 1: not shown
chain 2: SYVLTQPPSVSVAPGQTARITCGGNNIGSKSVHWYQQPPGQAPVVVVYDDSDRPSGIPERFSGSNSGNTATLTISRVEAGDEAVYYCQVWDSSSDHVVFGGGTKLTVLGQPKAAPSVTLFPPSSEELQANKATLVCLISDFYPGAVTVAWKGDSSPVKAGVETTTPSKQSNNKYAASSYLSLTPEQWKSHRSYSCQVTHEGSTVEKTVAPTECS
chain 3: EVQLVESGGGLVQPGGSLRLSCAASGFTFNTYAMNWVRQAPGKGLEWVARIRSKYNNYATYYAASVKGRFTISRDDSKNSLYLQMNSLKTEDTAVYYCARHGNFGNSYVSWFAYWGQGTLVTVSSASTKGPSVFPLAPCSRSTSESTAALGCLVKDYFPEPVTVSWNSGALTSGVHTFPAVLQSSGLYSLSSVVTVPSSSLGTKTYTCNVDHKPSNTKVDKRVESKYGPPCPPCPAPEAAGGPSVFLFPPKPKDTLMISRTPEVTCVVVDVSQEDPEVQFNWYVDGVEVHNAKTKPREEQFNSTYRVVSVLTVLHQDWLNGKEYKCKVSNKGLPSSIEKTISKAKGQPREPQVYTLPPSQEEMTKNQVSLTCLVKGFYPSDIAVEWESNGQPENNYKTTPPVLDSDGSFLLYSKLTVDKSRWQEGNVFSCSVMHEALHNHYTQKSLSLSLGK
chain 4: QTVVTQEPSLTVSPGGTVTLTCRSSTGAVTTSNYANWVQQKPGQAPRGLIGGTNKRAPGTPARFSGSLLGGKAALTLSGVQPEDEAEYYCALWYSNLWVFGGGTKLTVLGQPKAAPSVTLFPPSSEELQANKATLVCLISDFYPGAVTVAWKADSSPVKAGVETTTPSKQSNNKYAASSYLSLTPEQWKSHRSYSCQVTHEGSTVEKTVAPTECS
With B1, in experiment [1], the “CD3 T-cell activation EC50, H929-GPRC5D-KO” value came to 0.253 nM; the “CD3 T-cell activation EC50, H929-WT” value was 0.334 nM; the “Cytotoxicity EC50, H929-GPRC5D-KO” value stood at 0.198 nM; the “Cytotoxicity EC50, H929-WT” value stood at 0.275 nM.

B2: Talquetamab (GPRC5D×CD3 bispecific antibody) (bispecific antibody)
chain 1: not shown
chain 2: DIQMTQSPSSLSASVGDRVTITCKASQNVATHVGWYQQKPGKAPKRLIYSASYRYSGVPSRFSGSGSGTEFTLTISNLQPEDFATYYCQQYNRYPYTFGQGTKLEIKRTVAAPSVFIFPPSDEQLKSGTASVVCLLNNFYPREAKVQWKVDNALQSGNSQESVTEQDSKDSTYSLSSTLTLSKADYEKHKVYACEVTHQGLSSPVTKSFNRGEC
chain 3: B1 chain 3
chain 4: B1 chain 4
As to B2, in experiment [2], the “CD3 T-cell activation EC50, H929-BCMA-KO” value worked out at 0.633 nM; the “CD3 T-cell activation EC50, H929-WT” value turned out to be 0.233 nM; the “Cytotoxicity EC50, H929-BCMA-KO” value is 0.761 nM; the “Cytotoxicity EC50, H929-WT” value came to 0.243 nM.

B3: GCDB381 (CD3B376 Fab in bivalent IgG1-AAS antibody) (antibody, V domains shown)
VH: QVQLQQSGPRLVRPSQTLSLTCAISGDSVFNNNAAWSWIRQSPSRGLEWLGRTYYRSKWLYDYAVSVKSRITVNPDTSRNQFTLQLNSVTPEDTALYYCARGYSSSFDYWGQGTLVTVSS
VL: QSALTQPASVSGSPGQSITISCTGTSSNIGTYKFVSWYQQHPDKAPKVLLYEVSKRPSGVSSRFSGSKSGNTASLTISGLQAEDQADYHCVSYAGSGTLLFGGGTKLTVL
In the case of B3, the binding result in experiment [3] is recorded as “binds”. The figures for the “EC50 (read off the curve)” value in experiment [4], in experiment [5] and in [6] were roughly 80 nM, roughly 80 nM and roughly 70 nM, respectively.

B4: GC5B680 (parental anti-GPRC5D binder, tested as Fab) (Fab, V domains shown)
VH: QVTLKESGPVLVKPTETLTLTCTVSGFSLTNIRMSVSWIRQPPGKALEWLAHIFSNDEKSYSTSLKSRLTISRDTSKSQVVLTLTNVDPVDTATYYCARMRLPYGMDVWGQGTTVTVSS
VL: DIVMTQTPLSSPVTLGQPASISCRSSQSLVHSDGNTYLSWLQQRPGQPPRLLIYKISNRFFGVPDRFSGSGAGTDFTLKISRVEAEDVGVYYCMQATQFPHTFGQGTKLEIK
notes: Tested 'as Fab'; also called GPRC5d lead
For B4, the EC50 in experiment [7] and in experiment [8] was 6 to 24 nM throughout.

B5: BCMB519 (parental anti-BCMA binder, tested as scFv) (scFv, V domains shown)
VH: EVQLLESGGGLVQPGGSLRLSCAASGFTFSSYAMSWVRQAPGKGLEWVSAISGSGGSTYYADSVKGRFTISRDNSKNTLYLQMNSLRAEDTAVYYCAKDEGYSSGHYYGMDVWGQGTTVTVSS
VL: EIVLTQSPGTLSLSPGERATLSCRASQSISSSFLTWYQQKPGQAPRLLIYGASSRATGIPDRFSGGGSGTDFTLTISRLEPEDFAVYYCQHYGSSPMYTFGQGTKLEIK
notes: Tested 'as scFv'; also called BCMA lead
As for B5, the Kd in experiment [9] and in experiment [12] was 0.28 nM each time. For the same molecule, the EC50 in experiment [10] and in experiment [11] was 2.3 to 3.2 nM each time.
